Source: paper PMC3610674
Where two headings read alike, the source gives them in different places.

What was measured:
[1] = molecular target: proNS5-HA (proteolytically-processed HA-tagged DENV2 NS5) (dengue virus serotype 2 (DENV2)); assay: co-IP
[2] = molecular target: proNS5-HA (proteolytically-processed HA-tagged DENV2 NS5) (dengue virus serotype 2 (DENV2)); assay: co-IP; remark: listed apart in the source

UBR4 (human, endogenous) (from UniProt Q5T4S7 1-5183) (natural protein)
fold UBR4 precipitated against NS5-HA (densitometry) [1]: 2 fold
fold UBR4 precipitated against NS5-HA (densitometry) [2]: 7 fold
